This note sets out measurements from patent publication US20170190782A1 (ABGENOMICS COOPERATIEF U A, published 2017).

In assay [1] the target is human P-Selectin Glycoprotein Ligand-1 (PSGL-1) (human) (UniProt Q14242). Briefly: FACS, inhibition of recombinant human P-selectin binding to activated T cells; competitor P-selectin. A general note: In flow cytometry, cells or beads pass a laser one at a time.
Assay [2] deals with T1, E. coli expressed hCD162 fragment 42-119 fused to human immunoglobulin gamma 1 heavy chain constant region (human, UniProt Q14242 42-119).
T1 construct: range 42-119; Expressed in E. coli BL21(DE3) from pET-32a; NdeI/BglII cloning adds a start Met and junction residues that are not spelled out; also called fusion protein covering residues 42-119; not shown: human immunoglobulin gamma 1 heavy chain constant region
T1 sequence (looked up): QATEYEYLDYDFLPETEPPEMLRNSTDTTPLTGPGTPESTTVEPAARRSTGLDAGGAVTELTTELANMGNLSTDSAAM
Briefly: sandwich ELISA, fusion protein captured by goat anti-human IgG, antibody at 2 µg/ml. As for the experimental part: (§1) A sandwich ELISA was conducted to study the interaction between the hCD162 fragments and each of 15A7, 9F9, and 43B6. 96-well microtiter plates were coated with goat anti-human IgG (Southern Biotechnology, Cat. No. 2040-01) antibody (2 μg/ml, 50 μl/well) overnight at 4° C. Plates were blocked by incubation with 0.25% of BSA in PBS (150 μl/well) for 1 hour at 37° C. The blocked plates were then incubated with fusion proteins containing various fragments of human CD162 (2 μg/ml) for 2 hours at room temperature. After washing 4 times with PBS containing 0.05% of Tween 20 (PBST), the plates were incubated with testing antibodies (2 μg/ml) for 1.5 hours at room temperature.
(§2) After incubation, the plates were washed 4 times with PBST. 50 μl of 1 to 3000 diluted goat anti-mouse IgG conjugated with alkaline phosphatase (Southern Biotechnology, Cat. No. 1031-04) was then added to each well and the plates were incubated for 1 hour at 37° C. Enzyme reaction was carried out by adding 50 μl of an alkaline phosphatase substrate solution (1 alkaline phosphatase substrate tablet dissolved in 5 ml of substrate buffer containing 0.012 M of Na₂CO₃, 0.16 M of NaHCO₃ and 1 mM of MgCl₂ at pH 8.6), and absorbance at 405 nm was determined.
On the technique in general: An ELISA detects its analyte on a solid surface through an enzyme-linked reagent.

The target in assay [3] is T2, E. coli expressed hCD162 fragment 42-319 fused to human immunoglobulin gamma 1 heavy chain constant region (human, UniProt Q14242 42-319).
T2 construct: Expressed in E. coli from pET-32a; junction residues are not spelled out; not shown: human immunoglobulin gamma 1 heavy chain constant region
T2 sequence (looked up): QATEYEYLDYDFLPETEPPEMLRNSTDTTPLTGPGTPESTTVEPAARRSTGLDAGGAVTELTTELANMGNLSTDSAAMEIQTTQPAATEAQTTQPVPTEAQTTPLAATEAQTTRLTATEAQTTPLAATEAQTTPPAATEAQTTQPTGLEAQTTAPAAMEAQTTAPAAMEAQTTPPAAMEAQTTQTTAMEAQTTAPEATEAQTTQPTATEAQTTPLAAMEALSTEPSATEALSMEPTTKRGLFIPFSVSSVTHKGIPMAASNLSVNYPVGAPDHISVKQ
The assay is described as above. As for the experimental part:
as §1, §2

Assay [4] deals with T3, E. coli expressed hCD162 fragment 42-80 fused to human immunoglobulin gamma 1 heavy chain constant region (human, UniProt Q14242 42-80).
T3 construct: range 42-80; Expressed in E. coli from pET-32a; junction residues are not spelled out; not shown: human immunoglobulin gamma 1 heavy chain constant region
T3 chain (looked up): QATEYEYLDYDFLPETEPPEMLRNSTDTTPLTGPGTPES
The description is as above. The method, then:
as §1, §2

Assay [5] deals with T4, human P-Selectin Glycoprotein Ligand-1 (PSGL-1) (human, UniProt Q14242 42-412).
T4 construct: whole, on cells; also called hCD162; human CD162
T4 sequence (looked up): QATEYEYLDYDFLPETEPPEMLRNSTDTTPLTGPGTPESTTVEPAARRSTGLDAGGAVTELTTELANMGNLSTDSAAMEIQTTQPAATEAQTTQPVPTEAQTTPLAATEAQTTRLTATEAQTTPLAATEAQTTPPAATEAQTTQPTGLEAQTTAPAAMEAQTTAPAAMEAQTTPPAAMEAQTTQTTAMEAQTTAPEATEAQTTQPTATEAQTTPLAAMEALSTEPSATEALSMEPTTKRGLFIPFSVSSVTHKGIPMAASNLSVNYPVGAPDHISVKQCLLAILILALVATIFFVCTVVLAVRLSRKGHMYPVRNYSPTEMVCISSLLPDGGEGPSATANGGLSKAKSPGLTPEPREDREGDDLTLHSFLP
Briefly: FACS, inhibition of recombinant human P-selectin binding to activated T cells; competitor P-selectin. As for the experimental part: (§3) Human PBMC were activated with 1% PHA for 2 days and maintained in IL-2-containing medium for 3 days. The cells were incubated with titrated 9F9, 15A7, 43B6, KPL-1 (an PSGL-1 antagonist), or a control antibody (9E10) for 30 minutes, followed by the addition of recombinant human P-selectin (1.25 μg/ml). Binding of P-selectin to activated T cells was measured by anti-P-selectin-FITC analyzed on FACS. Consistent with previous reports, KPL-1 almost completely abolished P-selectin's binding to activate T cells at a low concentration (0.31 μg/ml). 43B6 blocked binding of P-selectin to activated T cells as effectively as KPL-1 did, whereas a higher concentration of 9F9 was required to achieve the same effect. Indeed, 0.08 μg/ml KPL or 43B6 was needed to abolish 50% of the binding. In contrast, 5 μg/ml 9F9 was required.

The target of assay [6] is T4, human P-Selectin Glycoprotein Ligand-1 …. Briefly: cell-based or functional assay.
Assay [7] shares this target. Briefly: FACS competition against Biotin-labeled mouse 15A7 on CD162-expressing Sp2/0 cells. As for the experimental part: (§4) Sp2/0 transfectants stably expressing human CD162 were used as source of human CD162 antigen. Biotin-labeled mouse 15A7 was used as tracer. Increasing amounts of competitor antibodies (mouse, chimeric, or humanized 15A7) were mixed with 35 ng of Biotin-labeled mouse 15A7 and incubated with 1×10⁵ CD162-expressing Sp2/0 cells for 1.5 hours at 4° C. with constant shaking. After washing, secondary antibody, Streptavidin-PE (Becton Dickinson Immunocytometry System Inc. Cat. No. 349023) was added to the mixture. After incubating for 45 minutes at 4° C., the cells were washed again, resuspended in 300 μl of PBS-1% of FBS, and subjected to FACS analysis.

Assay [8] has the same target. Briefly: derived from FACS competition against Biotin-labeled mouse 15A7 on CD162-expressing Sp2/0 cells. As for the experimental part: as §4
In assay [9] the target is T1, E. coli expressed hCD162 fragment …. Briefly: sandwich ELISA, fusion protein captured by goat anti-human IgG. The method, then: as §1, §2
Assay [10] concerns the target T3, E. coli expressed hCD162 fragment 42-80 …. The assay is described as above. As for the experimental part: as §1, §2
In assay [11] the target is T4, human P-Selectin Glycoprotein Ligand-1 …. As to the kind of experiment: FACS, inhibition of recombinant human P-selectin binding to activated T cells; competitor P-selectin; the antibody binds PSGL-1 but does not block. As for the experimental part:
as §3

Usually IC50 stands for the concentration that gives 50% inhibition. Consider KPL-1 anti-hCD162 antibody (PharMingen), for which, in [1], the IC50 came to 0.08 µg/mL and the concentration that almost completely abolished P-selectin's binding was found to be 0.31 µg/mL.

B1: mouse 43B6 antibody (antibody, V domains shown)
VL: ENVLTQSPAIMSASPGEKVTMTCRASSTVNSTYLHWFQQKSGASPKLWIYGSSNLASGVPARFSGSGSGTSYSLTISSVEAEDAATYYCQQYSGYPLTFGAGTTLELK
VH: EVQLQQSGPDLVKPGALVKISCKASGYSFTAYYIHWVKQSHGKSLEWIGRVNPNTGGTSYNPKFKGKAILNVDKSSSTAYMELRSLTSEDSAVYYCARSGSPYYRYDDWGQGTTLTVSS
notes: Mouse IgG1 from hybridoma m166-43B6; also called m166-43B6; M166-43136
With B1, the binding result in assay [2], in assay [3] and in [4] was “binds” each time. The IC50 in assay [5] turned out to be 0.08 µg/mL. For the same molecule, the “Percentage of apoptotic T cells (annexin V positive, CD3 gated), Day 0 non-activated human T cells” value (“Percentage … Day 0 non-activated human T cells” below) in assay [6] amounted to 6.57%. Also, the “Percentage of apoptotic T cells (annexin V positive, CD3 gated), Day 7 in vitro activated human T cells” value (from here on “Percentage … in vitro activated human T cells”) in assay [6] is 49.4%.

B2: humanized 15A7 antibody (antibody, V domains shown)
VH: EVQLVESGGGLVQPGGSLRLSCAASGFTFSSFGMHWVRQAPGKGLEWVAYINGGSSTIFYANAVKGRFTISRDNAKNTLYLQMNSLRAEDTAVYYCARYASYGGGAMDYWGQGTLVTVSS
VL: DIQMTQSPSSLSASVGDRVTITCRSSQSIVHNDGNTYFEWYQQKPGKAPKLLIYKVSNRFSGVPSRFSGSGSGTHFTLTISSLQPEDFATYYCFQGSYVPLTFGQGTKVEIK
notes: V regions were inserted into the pVk and pVg4 vectors (human kappa light chain constant region, human IgG4 heavy chain constant region); also called Hu15A7
Regarding B2, the IC50 in assay [7] is ~4.51 µg/mL. This molecule also gave a Ka in assay [8] of 3.33e+07 M⁻¹.

B3: mouse 15A7 antibody (antibody, V domains shown)
VL: DILMTQTPLSLPVSLGDQASISCRSSQSIVHNDGNTYFEWYLQKPGQSPKLLIYKVSNRFSGVPDRFSGSGSGTHFTLNISRVEAEDLGIYYCFQGSYVPLTFGAGTKLELK
VH: DVQLVESGGGLVQPGGSRKLSCAASGFTFSSFGMHWVRQAPEKGLEWVAYINGGSSTIFYANAVKGRFTISRDNPKNTLFLQMTILRSEDTAIYYCGRYASYGGGAMDYWGQGTSVTVSS
notes: Mouse IgG1 from hybridoma m152-15A7; also called m15A7; m152-15A7
Turning to B3, the figures for the IC50 in [7] and in assay [11] were 3.72 µg/mL and > 20 µg/mL, respectively. In addition, the values for the binding result in assay [9], in [10] and in assay [3] were “no binding (tested: 2 µg/ml)”, “no binding (tested: 2 µg/ml)” and “binds”, respectively. The same molecule had a Ka in assay [8] of 4.03e+07 M⁻¹. In [6], the “Percentage … Day 0 non-activated human T cells” value is 5.23%. For the same molecule, the “Percentage … in vitro activated human T cells” value in [6] stood at 51.7%.

B4: chimeric 15A7 antibody (antibody, V domains shown)
VH: DVQLVESGGGLVQPGGSRKLSCAASGFTFSSFGMHWVRQAPEKGLEWVAYINGGSSTIFYANAVKGRFTISRDNPKNTLFLQMTILRSEDTAIYYCGRYASYGGGAMDYWGQGTSVTVSS
VL: DILMTQTPLSLPVSLGDQASISCRSSQSIVHNDGNTYFEWYLQKPGQSPKLLIYKVSNRFSGVPDRFSGSGSGTHFTLNISRVEAEDLGIYYCFQGSYVPLTFGAGTKLELK
notes: Mouse 15A7 VL on the human light chain constant region (pVk) and mouse 15A7 VH on the human IgG1, IgG2 or IgG4 heavy chain constant region (pVg1, pVg2, pVg4)
As for B4, in assay [7], the IC50 is ~5.71 µg/mL. In assay [8], this molecule had a Ka of 2.62e+07 M⁻¹.

B5: mouse 9F9 antibody (antibody, V domains shown)
VL: DVLMTQTPLSLPVSLGDQASISCRSSQSIVNSNGNTYLEWYLQKPGQSPKLLIYKVSNRFSGVPDRFSGSGSGTDFTLKISRVEAEDLGVYYCFQGSHVPWTFGGGTKLEIK
VH: EVQLVETGGGLVQPKGSLKLSCAASGFTFNTNAMNWVRQAPGKGLEWVARIRSKSNNYATYYADSVKDRFTISRDDTQSMIYLQMNNLKTEDTGMYYCVRGGSYWYFDVWGAGTTVTVSS
notes: Mouse IgG1 from hybridoma m128-9F9; also called m128-9F9
For B5, the binding result in [2], in [3] and in assay [4] was “binds” each time. In addition, the IC50 in assay [5] turned out to be 5 µg/mL. The “Percentage … Day 0 non-activated human T cells” value in [6] is 5.82%. Further, the “Percentage … in vitro activated human T cells” value in assay [6] amounted to 28.7%.
